Laboratory results published in the supplement of paper PMC9170038.

System: MS2 coat protein
Test: apparent KD of MS2 coat protein; designed switch direction (-1 OFF switch, 1 ON switch): 1; higher = weaker reporter binding
Details: Eterna round: R98; input ligand: FMN 200 uM
Experimental: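 RNA-MaP: designed FMN/MS2 RNA switches (84 nt design region) are transcribed on-chip within common flanks and titrated with SNAP-549-labelled MS2 coat protein (about 1-3000 nM) in 100 mM Tris pH 7.5, 80 mM KCl, 4 mM MgCl2, without or with 200 uM FMN. Median apparent KD per design; activation ratio = KD,OFF / KD,ON.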

“CUGCAAUUCUUAGGAUAUGCUCAGGAUAACUGAGCAGAAGGAAGAUAUACCUGAGGAUCACCCAGGUUAAACUGGAGCAGAAUA [Same State NG1 - A3C, U17G Submission 8B]” and “GGACGUCACAUUAACAUGAGGAUCACCCAUGUCAAAAGACAUGAGGAUAUGGAUCCUAAUUGGAUCCAGAAGGCAUGGACGUCC [EliMod 1 - Jieux - Same State NG 3]” are within 1.5-fold of each other in “apparent KD of MS2 coat protein” value: 33.6 nM for the first, 38.9 nM for the second.

First: UGGAUGGUAUGAGGAUAUGCGCGCGAAACGCGCGCAGAAGGCAUGUCAAUAGACAUGAGGAUCACCCAUGUAUUAUCCAUCCAA [MatMod 9 - Jieux - Same State NG 1]
Second: CAGCAAUUCUUAGGAUAUGCUCAGGAAUACUGAGCAGAAGGAAGAUAUACCUGAGGAUCACCCAGGUUAAACUGAAGCUGAAUA [Same State NG1 - A3C, U17G Submission 7B]
The “apparent KD of MS2 coat protein” value of the first is 2.3-fold higher: 39.4 nM for the first, 17.4 nM for the second.

Compared with “CAUGUCCUCACAGGAUAUGCACCACUUUGUGGUGCAGAAGGGUGGAAACAUGAGGAUCACCCAUGUGGACAUGAUAUAUUUAAU [Denovo 7]”, “AGAAUGACAUGAGGAUCACCCAUGUUGGGAAAACCCGUAACUCAGGAUAUGUACGCGAAAGACCGACAGAAGGGAGAUCUACAC [Amaes]” is 1.9-fold higher in “apparent KD of MS2 coat protein” value: 22.4 nM for the first, 43.3 nM for the second.

Going from “AUAGGUUAAGGAGGAUAUAGAGGGAGAAGUAAACAUGAGGAUCACCCAUGUAUUUAAUUAGUUUACUAGAAGGCUUGUGAUUGU” to “UUUACAUGAGGAUCACCCAUGUCUGUCACGCGUGUGUGCAAUCAGGAUAUGAUCUCAAGAAUGAAUUAGAAGGGAUAACGUGAG [Attempt 5]”, the “apparent KD of MS2 coat protein” value rises from 50.9 nM to 354 nM (7-fold).

Going from “GUGCACACUCGAGGAUAUCGGAGAUUUCUCCUUCGAGAAGGCGAUUCGUGCCGUGUUAUUCUGGACAUGAGGAUCACCCAUGUG [LRO026_SS NG 1 mod JR_SSNG1_Sub034]” to “GGUCCAUCAUGAGGAUAUGGCACCUUAUUGGUGCCAGAAGGCAUGUCUUUUGACAUGAGGAUCACCCAUGUAAUAAAUUGGACC [Pyrimidine booster 6]”, the “apparent KD of MS2 coat protein” value rises from 35.4 nM to 130 nM (3.7-fold).

“GUAGCAUACCGAGGAUAUUCAUAUAUGAAAAUAACAUGAGGAUCACCCAUGUGGCGAAAGCCUUGGGAGAAGGCGGAAUGCUAC [Xeinanis 75 22]” and “AAAACAUGAGGAUCACCCAUGUAUAGAUCGGUUGUUAGGAGUGAGGAUAUGCUUAAAAUAAGGUAGCAGAAGGCACUGGGUACA [JR_SSNG3_Sub071]” are within 1.5-fold of each other in “apparent KD of MS2 coat protein” value: 34.4 nM for the first, 23.6 nM for the second.

Compared with “UAUAUAUGGUGAGGAUAUGCAAAGGAUCACCUUGUAGAAGGCAUCAGGGUAGAAGGUGCAAGGAUCACCUGUAAGGAUAUAUCC [pwkr2 ssNG1 DX.25]”, “CUGCGAUUCUUAGGAUAUCGAGUGGAAUACACUCGAGAAGGAAGAAUAACCUGAGGAUCACCCAGGUAAUACUGAAGCAGAAUA [Same State NG1 - A3C, U17G Submission 9C]” is 19-fold lower in “apparent KD of MS2 coat protein” value: 447 nM for the first, 23.4 nM for the second.

Compared with “UCACUCACGUCAGGAUAUGGAUCGGAAAACGAUCCAGAAGGGACCUGCAAACGUGAGGAUCACCCACGUUCCAAUAACGAGUGA [SameSame 11 - Jieux - Same State NG 1]”, “GCACUCAAGUUAGGAUAUGGAUCGGAAACCGAUCCAGAAGGAACACGAAAACAUGAGCAUCAGCCGUGUUCCAGAAACGAGUGC [SameSame 14 - Jieux - Same State NG 1]” is 12-fold higher in “apparent KD of MS2 coat protein” value: 29.7 nM for the first, 347 nM for the second.

Compared with “AAGAUACUUACAGGAUAUAGGGCAGAGGGUGCCCUAGAAGGGUGAACAUGAGGAUCACCCAUGUAUGUAUCAGAUUAGAAGGCA [Inleesti]”, “CGAGACACUUGAGGAUAUGCUCAGGAUAACUGAGCAGAAGGCAGGAAAACCUGAGGAUCACCCAGGUAACUGGAAAGUCUCGAA [Same State NG1 - A3C, U17G Submission 5F-G46A]” is 3.8-fold lower in “apparent KD of MS2 coat protein” value: 63.4 nM for the first, 16.9 nM for the second.

Compared with “AAAACAUGAGGAUCACCCAUGUAAAGUUCGGAAAGUUAGAGUGAGGAUAUACAAAUUUUUAUUUAGUAGAAGGCACUGGGUACA [JR_SSNG3_Sub032Nu]”, “UGAUCGCUUGGAGGAUAUCCAACUAUCAUAGUUGGAGAAGGCCAAGCUACAGAGCUAAGCUUGGAAGUCACUUCCGAUCAACAC [pwkr ssNG1 F9.4.3]” is 2-fold higher in “apparent KD of MS2 coat protein” value: 24.8 nM for the first, 49.7 nM for the second.

“GGAUCCAUCACAGGAUAUGCUGGACUUUGUCCAGCAGAAGGGUGACAUGAGGAUCACCCAUGUACAAAGGAUCCUAUAUUUAAU [Denovo 28]” and “AAAUAAAAUAUAGGAUAUGGAAACAUGAGGAUCACCCAUGUAAAAUAAAAUAAAUAAUAAUAUAACCAGAAGGAUAAAAUAUAA [LRO002_SS NG 2]” are within 1.5-fold of each other in “apparent KD of MS2 coat protein” value: 45.2 nM for the first, 36.1 nM for the second.

Same assay, conditions: Eterna round: R98; input ligand: none

Compared with “CUGCAAUUCUUAGGAUAUGCUCAGGAUAACUGAGCAGAAGGAAGAUAUACCUGAGGAUCACCCAGGUUAAACUGGAGCAGAAUA [Same State NG1 - A3C, U17G Submission 8B]”, “GGACGUCACAUUAACAUGAGGAUCACCCAUGUCAAAAGACAUGAGGAUAUGGAUCCUAAUUGGAUCCAGAAGGCAUGGACGUCC [EliMod 1 - Jieux - Same State NG 3]” is 3.8-fold higher in “apparent KD of MS2 coat protein” value: 179 nM for the first, 680 nM for the second.

Going from “UGGAUGGUAUGAGGAUAUGCGCGCGAAACGCGCGCAGAAGGCAUGUCAAUAGACAUGAGGAUCACCCAUGUAUUAUCCAUCCAA [MatMod 9 - Jieux - Same State NG 1]” to “CAGCAAUUCUUAGGAUAUGCUCAGGAAUACUGAGCAGAAGGAAGAUAUACCUGAGGAUCACCCAGGUUAAACUGAAGCUGAAUA [Same State NG1 - A3C, U17G Submission 7B]”, the “apparent KD of MS2 coat protein” value falls from 300 nM to 15.7 nM (19-fold).

Compared with “CAUGUCCUCACAGGAUAUGCACCACUUUGUGGUGCAGAAGGGUGGAAACAUGAGGAUCACCCAUGUGGACAUGAUAUAUUUAAU [Denovo 7]”, “AGAAUGACAUGAGGAUCACCCAUGUUGGGAAAACCCGUAACUCAGGAUAUGUACGCGAAAGACCGACAGAAGGGAGAUCUACAC [Amaes]” is 4.4-fold lower in “apparent KD of MS2 coat protein” value: 164 nM for the first, 37.4 nM for the second.

Compared with “AUAGGUUAAGGAGGAUAUAGAGGGAGAAGUAAACAUGAGGAUCACCCAUGUAUUUAAUUAGUUUACUAGAAGGCUUGUGAUUGU”, “UUUACAUGAGGAUCACCCAUGUCUGUCACGCGUGUGUGCAAUCAGGAUAUGAUCUCAAGAAUGAAUUAGAAGGGAUAACGUGAG [Attempt 5]” is 8-fold higher in “apparent KD of MS2 coat protein” value: 45.9 nM for the first, 366 nM for the second.

First: GUGCACACUCGAGGAUAUCGGAGAUUUCUCCUUCGAGAAGGCGAUUCGUGCCGUGUUAUUCUGGACAUGAGGAUCACCCAUGUG [LRO026_SS NG 1 mod JR_SSNG1_Sub034]
Second: GGUCCAUCAUGAGGAUAUGGCACCUUAUUGGUGCCAGAAGGCAUGUCUUUUGACAUGAGGAUCACCCAUGUAAUAAAUUGGACC [Pyrimidine booster 6]
The “apparent KD of MS2 coat protein” value of the first is 17-fold lower: 110 nM for the first, 1920 nM for the second.

Compared with “GUAGCAUACCGAGGAUAUUCAUAUAUGAAAAUAACAUGAGGAUCACCCAUGUGGCGAAAGCCUUGGGAGAAGGCGGAAUGCUAC [Xeinanis 75 22]”, “AAAACAUGAGGAUCACCCAUGUAUAGAUCGGUUGUUAGGAGUGAGGAUAUGCUUAAAAUAAGGUAGCAGAAGGCACUGGGUACA [JR_SSNG3_Sub071]” is 32-fold lower in “apparent KD of MS2 coat protein” value: 490 nM for the first, 15.3 nM for the second.

First: UAUAUAUGGUGAGGAUAUGCAAAGGAUCACCUUGUAGAAGGCAUCAGGGUAGAAGGUGCAAGGAUCACCUGUAAGGAUAUAUCC [pwkr2 ssNG1 DX.25]
Second: CUGCGAUUCUUAGGAUAUCGAGUGGAAUACACUCGAGAAGGAAGAAUAACCUGAGGAUCACCCAGGUAAUACUGAAGCAGAAUA [Same State NG1 - A3C, U17G Submission 9C]
The “apparent KD of MS2 coat protein” value of the first is 48-fold higher: 1560 nM for the first, 32.7 nM for the second.

Going from “UCACUCACGUCAGGAUAUGGAUCGGAAAACGAUCCAGAAGGGACCUGCAAACGUGAGGAUCACCCACGUUCCAAUAACGAGUGA [SameSame 11 - Jieux - Same State NG 1]” to “GCACUCAAGUUAGGAUAUGGAUCGGAAACCGAUCCAGAAGGAACACGAAAACAUGAGCAUCAGCCGUGUUCCAGAAACGAGUGC [SameSame 14 - Jieux - Same State NG 1]”, the “apparent KD of MS2 coat protein” value rises from 35.4 nM to 917 nM (26-fold).

Compared with “AAGAUACUUACAGGAUAUAGGGCAGAGGGUGCCCUAGAAGGGUGAACAUGAGGAUCACCCAUGUAUGUAUCAGAUUAGAAGGCA [Inleesti]”, “CGAGACACUUGAGGAUAUGCUCAGGAUAACUGAGCAGAAGGCAGGAAAACCUGAGGAUCACCCAGGUAACUGGAAAGUCUCGAA [Same State NG1 - A3C, U17G Submission 5F-G46A]” is 2.4-fold lower in “apparent KD of MS2 coat protein” value: 43.3 nM for the first, 17.9 nM for the second.
